Assay results from patent US20250115663A1 (CELLDEX THERAPEUTICS, published 2025).
Residue numbers refer to the chain shown, from its start.

B1: anti-CD40 human monoclonal antibody 3B6 (antibody, human IgG2, V domains shown)
VH: EVQLLESGGGLVQPGGSLRLSCAASGFTFSSYAMSWVRQAPGKGLEWVSGITGTGGSTYYADSVKGRFTISRDNSKNTLYVQMNSLRAEDTAVYYCAKRAGGSFYYYYGMDVWGQGTTVTVSS
VL: DIVMTQSPLSLPVTPGEPASISCRSSQSLLHSTGYNYLDWYLQKPGQSPQLLIYLGSNRASGVPDRFNGSGSGTDFTLKISRVEAEDFGVYYCMQALQTPWTFGHGTKVEIK
notes: Human IgG2
B2: anti-CD40 human monoclonal antibody 6H6 (antibody, human IgG2, V domains shown)
VH: QVQLVESGGGVVQPGRSLRFSCAASGFTLSSYGMHWVRQAPGKGLEWVAVIWDDGSNKYYADSVKGRFTISRDNSKNTLYLQMNSLRAEDTAVYYCARAGGSGRYYNYFDYWGQGTLVTVSS
VL: EIVMTQSPATLSVSPGERATLSCRASQSVRSNLAWYQQKPGQAPRLLIYGASTRATGIPARFSGSGSGTDFTLTISSLQSEDFAVYYCQQHNNWLTFGGGTKVEIK
notes: Human IgG2
B3: F(ab')2 fragment of antibody 3G5 (other)
VH: B2 VH with R16K, F20L, L29F, Y32N, M34I, D53S, Y59F, G100S, R104S, Y108F
VL: B2 VL with D70E, S76N, N93K, L95I, G99Q, K102R, V103L
notes: F(ab')2 version of the IgG2 antibody, lacking the Fc domain; also called 3G5 F(ab')2
B4: anti-CD40 human monoclonal antibody 1B4 (antibody, human IgG2, V domains shown)
VH: EVQLLESGGGLVQPGGSLRLSCAASGFTFSSYAMTWVRQVPGKGLEWVSGITGSGANTFYTDSVKGRFTISRDNSNNSLYLQMNSLRADDTAVYYCAKRNGGSYYYYYGMDVWGQGTTVTVSS
VL: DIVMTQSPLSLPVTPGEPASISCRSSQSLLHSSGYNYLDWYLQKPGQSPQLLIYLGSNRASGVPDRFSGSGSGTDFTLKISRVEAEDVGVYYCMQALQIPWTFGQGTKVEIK
notes: Human IgG2
B5: anti-CD40 human monoclonal antibody 1B5-NK (antibody, human IgG2, V domains shown)
VH: QVQLVESGGGVVQPGRSLRLSCAASGFTFSSFGMHWVRQAPGKGLEWVTLIWFDGSSKYYADSVKGRFTISRDNSKNTLYLQMNSLRAEDTAVYYCVRGFAAVAGWYFDFWGRGTLVTVSS
VL: DIQMTQSPSSLSASVGDRVTITCRASQGVRKYLAWYQQKPGKVPKLLIYAASTLQSGVPSRFSGSGSGTDFTLTISSLQPEDVATYYCQKYFSAPYTFGQGTKLEIK
notes: Human IgG2
B6: F(ab')2 fragment of antibody 3C3 (other)
VH: QVQLVESGGGVVQPGRSLRLSCAGSGFIFSRYGMYWVRQAPGKGLEWVAVIWYDGSYKYYADSVKGRFTISRDNSKNTLYLQMNSLRAEDTAVYYCARESPWYYFDYWGQGTLVTVSS
VL: B5 VL with V29I, R30S, K31N, F92K, Y96F, Q100P, L104V, E105D
notes: F(ab')2 version of the IgG2 antibody, lacking the Fc domain; also called 3C3 F(ab')2

How the values were obtained:
[1] = target: T1, soluble human CD40-MsIgG2a (human, UniProt P25942); assay: BLI (Octet QKe), antibody captured on anti-human Fc (AHC) biosensors, analyte soluble human CD40-MsIgG2a 3.13 to 0.098 nM, 25 C, 1:1 fit
T1 construct: soluble, fused to mouse IgG2a; also called recombinant human CD40-msG2a chimeric protein; CD40-MsIgG2a (Celldex, 60 kD by SDS-PAGE)
T1 sequence (P25942 21-193 limits assumed): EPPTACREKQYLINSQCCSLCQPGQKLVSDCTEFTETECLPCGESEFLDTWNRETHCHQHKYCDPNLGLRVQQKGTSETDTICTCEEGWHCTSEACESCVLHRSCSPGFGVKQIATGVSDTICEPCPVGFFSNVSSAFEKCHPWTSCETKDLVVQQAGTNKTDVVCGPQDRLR
Experimental: (§1) Purified antibodies from Example 1 were captured on Anti-Human Fc Capture (AHC) biosensors (Fortebio Product No. 18-5060). Each antibody was prepared in dilution buffer (10mMPO4+150 mM NaCl+1 mg/mL BSA+0.5% Tween 20, pH 7.2) to 0.5 μg/mL and loaded on freshly hydrated AHC biosensors for 35-50 sec at 25° C. and 1000 rpm plate shake speed to achieve a target response of 0.2 nm. Low levels of ligand were captured to limit any effects of mass transport of analyte on kinetic parameters. For one assay, eight biosensors were loaded with the same antibody.
(§2) Binding was determined by exposing six of the antibody loaded biosensors to analyte: soluble human CD40-MsIgG2a (Celldex, 60 kD by SDS-PAGE). Affinity measurements were determined using 2-fold serial dilutions of analyte ranging from 3.13 to 0.098 nM in dilution buffer at 25° C. and 1000 rpm plate shake speed. Association of the antibody loaded biosensors in analyte wells was carried out for 1200 seconds, the biosensors were then moved to dilution buffer wells for 2.5 hrs (9000 sec) for dissociation measurements.
(§3) Fortebio's Data Analysis Software version 8.2.0.7 (Pall ForteBio, Menlo Park, CA) was used in each case to derive kinetic parameters from the concentration series of analyte in dilution buffer binding to captured antibody. The association and dissociation curves were fitted to a 1:1 binding model using the data analysis software according to the manufacturer's guidelines.

[2] = target: T1, soluble human CD40-MsIgG2a; assay: BLI (Octet QKe), antibody captured on anti-human Fc (AHC) biosensors, analyte soluble human CD40-MsIgG2a 3.13 to 0.098 nM, 25 C, 1:1 fit; column head kdis(1/s)
Experimental: as §1, §2, §3

[3] = target: T2, recombinant human CD40-Fc (human, UniProt P25942 21-193); assay: ELISA on coated recombinant human CD40-Fc, detection anti-human IgG F(ab')2-HRP, OD 450-650
T2 construct: also called soluble recombinant human CD40/Fc chimera from R&D Systems; not shown: The antibody Fc domain of the R&D Systems chimera and any linker to it
T2 sequence (P25942 21-193 limits assumed, form in doubt): as the sequence (P25942 21-193 limits assumed) above
Experimental: Microtiter plates were coated with recombinant human CD40-Fc in PBS, and then blocked with 5% bovine serum albumin in PBS. […] The plates were washed with PBS/Tween and then incubated with a goat-anti-human IgG F(ab′)2-specific polyclonal reagent conjugated to horseradish peroxidase at 37° C. After washing, the plates were developed with HRP substrate, and analyzed at OD 450-650 using a microtiter plate reader.

[4] = target: T2, recombinant human CD40-Fc; assay: ELISA on coated recombinant human CD40-Fc, detection anti-human IgG F(ab')2-HRP, OD 450-650 (the y axis is labelled 'Median Fluorescence')
Experimental: Microtiter plates were coated with recombinant human CD40-Fc in PBS, and then blocked with 5% bovine serum albumin in PBS. Protein A purified human mAbs from Example 1 and an isotype control were added at various concentrations and incubated at 37° C. The plates were washed with PBS/Tween and then incubated with a goat-anti-human IgG F(ab′)2-specific polyclonal reagent conjugated to horseradish peroxidase at 37° C. After washing, the plates were developed with HRP substrate, and analyzed at OD 450-650 using a microtiter plate reader.

| Binder | Kd [1] [nM] | kon [1] [M⁻¹ s⁻¹] | koff [2] [s⁻¹] | EC50 (read off the curve) [3] [nM] | EC50 (read off the curve) [4] [mg/L] |
| --- | --- | --- | --- | --- | --- |
| B1 | 0.0079 | 782000 | 6.14e-06 | – | – |
| B2 | 0.0028 | 905000 | 2.49e-06 | – | – |
| B3 | – | – | – | ~0.3 | – |
| B4 | 0.0105 | 832000 | 8.76e-06 | – | – |
| B5 | – | – | – | – | ~0.09 |
| B6 | – | – | – | ~0.4 | – |
